What was measured:
His6–Scs2(1–127) [1] = target: T1, His6–Scs2(1–127) (S. pombe, UniProt O60119 1-127); assay: pull-down; bead-bound His6–Scs2(1–127) (2–3 µg) incubated with 10 µg GST or GST–Duc1(351–380) in 500 µl 20 mM Tris-HCl pH 7.4, 150 mM NaCl, 0.1% NP-40, 30 min at 4°C; three washes; SDS-PAGE, Coomassie blue; details: both partners purified
T1 construct: Scs2 (VAMP-associated protein, VAP), S. pombe, residues 1-127 (MSP domain), amplified from genomic DNA and cloned into pET15b; Cloned into the NdeI and BamHI sites of pET15b; also called Scs2 MSP domain; His-tagged version of the Scs2 MSP domain
T1 sequence (looked up): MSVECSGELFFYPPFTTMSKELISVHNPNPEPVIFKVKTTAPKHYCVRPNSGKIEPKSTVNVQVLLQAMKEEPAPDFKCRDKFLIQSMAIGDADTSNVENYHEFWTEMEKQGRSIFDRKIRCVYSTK

His6–Scs2(1–127) [2] = target: T2, His6–Scs2(1–127) (Schizosaccharomyces pombe (strain 972 / …, UniProt O60119)); assay: pull-down (bead-bound His6-Scs2, Coomassie SDS-PAGE)
T2 chain: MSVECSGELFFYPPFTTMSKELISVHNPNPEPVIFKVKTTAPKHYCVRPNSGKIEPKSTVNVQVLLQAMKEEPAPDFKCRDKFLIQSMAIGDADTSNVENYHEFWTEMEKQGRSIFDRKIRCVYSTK

binding result (His6–Scs2(1–127) [1]): binds
binding result (His6–Scs2(1–127) [2]): binds
Binder: GKDVYKHGISNVPDDENEDDLQRYFTALEM (domain or fragment, S. pombe, UniProt O74504 351-380, looked up) [GST–Duc1(351–380)]

Reference: publication PMC11449445, “Fission yeast Duc1 links to ER–PM contact sites and influences PM lipid composition and cytokinetic ring anchoring” (Journal of Cell Science, 2024)
